Experiment: soluble on expression in E. coli; label from the status in PepcDB or PDB records

Sequence | soluble on expression in E. coli
MSSKWITSLFKSVVLTAALVTPFAASAFTEGTDYMVLEKPIPNADKTLIKVFSYACPFCYKYDKAVTGPVSDKVADLVTFTPFHLETKGEYGKQASEVFAVLIAKDKAAGISLFDAKSQFKKAKFAWYAAYHDKKERWSDGKDPAAFIKTGLDAAGMSQADFEAALKDPAVQETLEKWKAAYDVAKIQGVPAYVVNGKYLIYTKNIKSIDSMAELVRELATKK | not soluble
MAHHHHHHMQFVVVDGSWPVVPCAIPRSQLLARSVKDTDHGEDGGGQSVLPGHALFTLCQEVLDTSASKTKAPPELATLDMTFLRDPQSGPLGALRLYTFKSVSHQFFAVEDLVSSGCLIVFTSHWASLTSAALLTGVRTTHKEKDDSAKSSRRRIENNTGSGTREVSASRASSLMGRGRSVLQKFSRAETYFTSVASATQRDFEMVNELLLSGTIRMNAHLESFLCSVCGNLPRRTMTTSCCGAVVCLLCAPTLSSSSVLREEVVCAVCGEMPLTNPEAHVSRDAEVMRLVRELRVLYHPQVSAAACRAMPGETQPPPTPFNVHHAGLPVPICDMNEPTGSVLGSVFMGPS | not soluble
MHHHHHHSSGVDLGTENLYFQSNAMEPFKHPIAILGAGSWGTALALVLARKGQKVRLWSYESDHVDEMQAEGVNNRYLPNYPFPETLKAYCDLKASLEGVTDILIVVPSFAFHEVITRMKPLIDAKTRIAWGTKGLAKGSRLLHEVVATELGQVPMAVISGPSLATEVAANLPTAVSLASNNSQFSKDLIERLHGQRFRVYKNDDMIGVELCGSVKNILAIATGISDGLKLGSNARAALITRGLTEMGRLVSVFGGKQETLTGLAGLGDLVLTCTDNQSRNRRFGLALGEGVDKKEAQQAIGQAIEGLYNTDQVHALAQKHAIEMPLTFQVHRILHEDLDPQQAVQELLERSPKAE | soluble
MVEFSKESSTRVSVNSQRQISHVQKRELTKRKSVRFETQTVESTSEFVGKTNQEWTFVADCFNLDKETRSEREQELLSLCNFFDSNEKELELSDASDESDDSVPFELFAEQGMRIAWTQIVTSPSLSNLRLASILRFDTKKKIVSPFIEDEKSPQEFFLDDNEAVENAFKGVLPCTNSQKVSRSRRASKSEEENDFVTAKGSDFWSDVEF | not soluble
GAKLNRKLRQDSTDRYKTKLYLWRNLGGLIPEDMAISVTESITADWKQYNDMMSKVRNETLDILKTNKVATEDYIGYIAFAEELAHQVWKNKNSSPDPNTANEASKTDLESKYSDVYGLDVTVLDAIYNAVIPIIMGGGS | soluble
MGSDKIHHHHHHMRKLGFVLFVLITAVMTAQEEPLVSNIFQDTYILDALADISAQTGIPIIADTTVTGFITMELNEVPLEQALKMILMPGGYVFKKMDGFYLVGSPDPANPAFRYLAVTKTYKLKYITTADAQELLPAVYKSYVKFNEKNNMVTITAPEEIIQEFEEDLKKIDIPIPQVKISVIVTEVSKDYSNELGLNSLDYSFGSGQEFNENWSATLGLVTGIIDVQTDVFGQILAQLKLLEEDQKAKITADPWIIVKSGEKASLFLGERQVVLLQAEGAVSRIESIDVGVSIDIQPRVMDKEELELTLSPKVSHFAGEKLGTFAVKQNELSTTLFLKNGQTVVISGATIEDSAQTSSGVPILNKIPLIRYLFGGTTKKDSQKELYIFIKAEIQGSE | not soluble
MAHHHHHHMAKDNKGKVKKAAGEETVKYYRVKGKKKILIPVKAKKTIAKKYYGRKLASKKKYIVQGKMRKSIEVGKVAIILSGKHMGKRCIITKVLTSGLLAVVGPYEVNGVPLKRVNPRYVVVTSTNIFKFENMAGLKDEFVKLAEQIEDNSFVKSLEIKKKQKKLLSKKNEGLFMNDVITKIKELMKEDPKMQQLQKIQKEIGTLLKDEIAKNKIFAEYLKSKFTLRNDMALHKMKF | not soluble
MTELKDRLQVADKEKWNLTDIYDTIEDWESDFHKIEVLTNELHEFNGNIHDGNSLLAYLTKSEEISSIISLMFAYARLQSDLDTRDTDAQSLVDKVSQLHVKVSAAKSFFSPFLLSVDENTLHTYIEEAEGLQYYKEDLFELYRYKKHVLNKDQEEILSQMGEALSSPQHTYGMLNNADILFGEVTSNDGEKVTLTRGMYAKLIEDESREKRKEAYKAYYKPYVQLKNSIASTLSAAIKNNVTVSKLRKYPSALEKSLFGDMVPKEVYENLIETTKKNIQSLHTYNKLRKEKLNVDELRQYDLSVDLVQGVKQDIPYDNAFDIMIESLAPLGEEYIETLKSFKDKRYIDVRETPGKCSGAYNFGVYGVHPFILLNHHDDLNSLFTLTHECGHGMHTHYSHGYQPRISAHYTIFVAEVASTVNEVLLIHHLLKEAKDANVRNHLVNHFIEKFKGTFFTQIMFAEFEKITHEMAQQGKPLNAQVFSDVYENLFREYNGDSLVFDEEVKYGWARIPHFYRPFYVYKYATGFASAIQIADKLLSGDPNAQKNYLEFLKGGSSDYPLNLLKKAGVDLTTPEPIESALNRFSELVEEFSTL | not soluble
MNGSKENAMKIDLNSDMGEGFGPYRLCDDEAMMKIVSSANIACGFHGGDPDTMARMVRLAKANGVGIGAHPGLPDRAGFGRREIPFQPDELRQQMLYQLGALMAIAGAEGMKVGHFSFHAAMGNMVNRDPVLADLMMNAIATVDPRLVVFVTPESEIERAAKRAGLKTLALFLADRAYDAEGRLVARGLPGALVKDETSVRARVRRFLTHGQVEAIDGTIIAMPAHSILVHSDTPGSLELARIIRSEIEASGATLAPAAEHAALEHHHHHH | soluble
MGFRLGIVGLPNVGKSTLFNALTKTMKAQAANYPFCTIEPNVGVVEVPDERLYKLAEIEKSQKITPTFIEFVDIAGLVKGASKGEGLGNQFLSHIREVDAVAMVLRAFEDENIVHVEGSVDPVRDKEIVEIELIAKDLESVNRRIEKVQKVAKGGDKKAREEMEHLNALKEILENLEPIRKYADKLPPETLEYAKKTLFLLTVKPVMYIANISEKDLPEGEGNPHVERIKEMANQENAPVVVISAELEAQLAGLSEEEQKEMLEAYGLKEPGLNKVIRTGYRLLDLITFFTAGEREARAWTVKRGTKAPQAAGKIHSDMERGFIAAEVISYEDLIKAGSWAKAKEQGLIRLEGKDYEIQDGDVVYFRFNV | soluble
MGSDKIHHHHHHMIRIKTPSEIEKMKKAGKAVAVALREVRKVIVPGKTAWDVETLVLEIFKKLRVKPAFKGYGGYKYATCVSVNEEVVHGLPLKEKVFKEGDIVSVDVGAVYQGLYGDAAVTYIVGETDERGKELVRVTREVLEKAIKMIKPGIRLGDVSHCIQETVESVGFNVIRDYVGHGVGRELHEDPQIPNYGTPGTGVVLRKGMTLAIEPMVSEGDWRVVVKEDGWTAVTVDGSRCAHFEHTILITENGAEILTKEG | soluble
MSLADEMGYVPDRRAQKLRQASSRLLGVVFELQQPFHGDLVEQIYAAATRRGYDVMLSAVAPSRAEKVAVQALMRERCEAAILLGTRFDTDELGALADRVPALVVARASGLPGVGAVRGDDVAGITLAVDHLTELGHRNIAHIDGADAPGGADRRAGFLAAMDRHGLSASATVVTGGTTETEGAEGMHTLLEMPTPPTAVVAFNDRCATGVLDLLVRSGRDVPADISVVGYDDSRLARIPHVQMTTISQDATHMAEAAVDGALAQISGDKAVDLVLAPHLVRRATTGPVAHREGHHHHHH | soluble
MSLHVLTLAIARAASIDELALAANKQRELVESLMSRGVRTRFVMELIAAVNEQIIEKAFELVVPPALHDQCCLVVLGSEGRGEQILKTDQDNALIIQDGLEWHQCQPIMETLTHTLLQLGYPLCPGKVMVNNPKWVRSQSDWKRTLTDWVKAARPEQVMDIAIFADAHAVAGNRALLAPVKAHLQHLMAGQELILAEFTRPALNFSVPLTLFGNVKSSKQGIDIKQGGIFPIVHGVRALSLEHAIDANNTFDRIEALVKKRVLEQETGDNLSEAFKLFLKLRLAQQLGNQHSTNQLDFKQLDRTERDLLRHSLHVVKKFKQWLGYHYQIRDEGHHHHHH | soluble
MHFRMKVLENSSKHNTPKKQKTFQHYLPAGDRCYSCIHCRANLAAHAELISKSFQGSQGKAYLFNAVVNVGCGPAEERVLLTGLHAVADIYCEICKTTLGWKYEHAFESSQKYKEGKFIIELAHMVKDNGWDEQNDS | not soluble
MSMLKKTKEFFGLAPYEAEHEDAYYADEPRYEGTAAYAPEYRERDYGYAPEAPAPVAPSPAPRSYQSTIVPVELHSFEDAQVIGGAFRDGDAVVFDMSLLSREEARRIVDFAAGLCFALRGKMQKIDSVTFAVVPELSNISTSELERAARIRAAALEHHHHHH | soluble
MRSMTDVRRYWISLLRKICEMPLELCASDRLKKSMPVEGKKSEERRKFTHLELLGRIFCGISPFLELNRESPSTDPEERKIATRLSEFAVKSLDVATNPNCKDYMNFKEGRQPLVDAAFLVEAILRAPKVLWEDLDVSTKKRLIRELKATRKIEPYFSNWLLFSAMIETFFFFAGEEWDSTKVDLILKNVESWYKGDGAYGDGPFFRWDYYNSFVIYPMTIDVLRIISEEKTEWKELYVKVLRRAQRYAVVLERMISPEGTFPIIGRSITYRTAVFHLLSQLSLLHLLPASLSPAQVRCALTAVLRRIFENPSTFDENGWLKIGVIGSQPSLGEEYITTGSLYLCTTVFLPLGLPTSDPFWRDPCKKWTNKKVWEGEDVAPDRALEDLEHHHHHH | soluble
MKIVEALKANGVEVIITEKADVLIKNFENAHISYALSADEKTGVIFFGGFEEKMKAGLAEHHVAILKEEDVKENILLAYEHARRKSDVLFASSSASKTADIEGKTVFGMHGPRKFTVVLVVRK | not soluble
MAHHHHHHMKNALEQLDRHPLVNFQMDVSPLYSALKNIMQEQIQQAQLQEKISQRLTNLEAEVRSVGVRQKEFEDSLDALTPDAKLQTQQTLKELSTNIKNLTSDMKKVRYDVGEAMRTAVDAKRGIHDLESELLSIRQQQRDFSDLHQEVMREHLKFTAAVKDIRWKIEEQEKLIQEFSQVKPQNTSEVDESKLHGMLSALCERTDQNFRSVEESSFAVDAELTRLRADMKFVQNEVRMLRSELHRGGNHLRRDVGCRRQSPHGGSQGADKSALRNEEHLNGYESASTQGAL | not soluble
MAKIAAIFQLLDKNVTVSSHRLELLSPARDAAIAREAILHGADAVYIGGPGFGARHNASNSLKDIAELVPFAHRYGAKIFVTLNTILHDDELEPAQRLITDLYQTGVDALIVQDMGILELDIPPIELHASTQCDIRTVEKAKFLSDVGFTQIVLARELNLDQIRAIHQATDATIEFFIHGALCVAYSGQCYISHAQTGRSANRGDCSQACRLPYTLKDDQGRVVSYEKHLLSMKDNDQTANLGALIDAGVRSFKIEGRYKDMSYVKNITAHYRQMLDAIIEERGDLARASSGRTEHFFVPSTEKTFHRGSTDYFVNARKGDIGAFDSPKFIGLPVGEVVKVAKDHLDVAVTEPLANGDGLNVLIKREVVGFRANTVEKTGENQYRVWPNEMPADLHKIRPHHPLNRNLDHNWQQALTKTSSERRVAVDIELGGWQEQLILTLTSEEGVSITHTLDGQFDEANNAEKAMNNLKDGLAKLGQTLYYARDVQINLPGALFVPNSLLNQFRREAADMLDAARLASYQRGSRKPVADPAPVYPQTHLSFLANVYNQKAREFYHRYGVQLIDAAYEAHEEKGEVPVMITKHCLRFAFNLCPKQAKGNIKSWKATPMQLVNGDEVLTLKFDCRPCEMHVIGKIKNHILKMPLPGSVVASVSPDELLKTLPKRKG | not soluble
MVTDHGYKCRITNIVPLSEHEKLFQLRIVDPRERELFTFRPGQFLMLEVPGYGEAPISISSATSNREFIELCIRKAGHVTSALFEAKQGAFVAVRGPFGTSFPMEAMQDHDVLLIAGGLGIAPLRAPLFWINDHRDHYRNVSFLYGAKEPSQMLFTYQFEEWKTVSHIDLHTIVEKPDDQWTGRTGMITLLFDEITIDPKNTWAIVCGPPVMFKFVCTHLDKLGIPMNRMFVSLERHMNCGMGKCCRCMVGSTFTCLDGPVFDYWSVMNLKEAI | not soluble

From the DeepSol protein solubility set
